The record followed here is a protein production outcome set (Wang et al. 2014).
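Further: failed if final PepcDB status was selected cloned or expressed and not failed if soluble or beyond.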

This data set can be described thus: label from the status in PepcDB records.
As to “MPTLGFRFRAYTDEQTLRALKAQLKSACKIYNTLRWADIYFYQRDGKGLTRTELRQLALDLRKQDDEYKQLYSQVVQQVADRYYEAKKRFFEGLAHFPKEKKPHKHYSLVYPQYGWKILQVREIRKGSKKKLITLKLSNLGTFKVIVHRDFPLDKVKRVVVKLTRSERIYITFVVDHEFPKLPNTGKVVAIDVGVEKLIVTSDGEYFPNLRPYEKALWKVKHLHRELSRKKFLSHNWFKAKVKLARAYEYLKNLRTDLYMKLGKWFAEHYDVVVMEGIHVKQLIGKSLRSLRRRLSDVAFSELRDLIKYQLEKYGKKLILVNPAYTSKTCAKCGYVKEDLSLSDRVFVCPNCGWIADRDYNASLNILRGSGSERPLVWSSALYQYSGMAELLEHHHHHH”, the protein production entry is “not failed”. Regarding “MPTPAYIKIVGQTQGNITAGAFTADSVGNVFQQGHEDQILVQEIKHEVTTPTDPQSGQPSGQRVHKPFIFTSSLNKATPLMYQALATGEMLPTVEVSWYRTSSEGKQEHFFTTTLEDATIVSINTVLPHALDKDNENYTQLVEVSLAYRKITWAHDVANTEGSDDWRAPAA”, the protein production result is listed as “failed”. In the case of “MPTPAYMSINGETQGHITKDTYSADSVGNTWQEAHVDEFLVQELDHVLTVPRDPQSGQPTGQRVHRPLVVTKVQDRSSPLLFNALVSGEKLPECLIRFYRTSVQGKQEHYYSIKLIDALLVDIQTRMNHCQDAATADRVTEEVLKFTYRAIEVTHENCGTAGNDDWRAPREA”, the protein production entry was “failed”. Consider “MPTPPAASSLAAQMGESPAPLYARVKHMIALQIQNGTWPPHHRVPSESELVTQLGFSRMTINRALRELTVEGLLVRMQGVGTFVAEPKSQSALFEVHNIADEIAARGHRHTCKVMVLKEEAAGSERALALDMREGQRVFHSLIVHFENDIPVQIEDRFVNAQVAPDYLKQDFTLQTPYAYLSQVAPLTEGEHVVEAILAEADECKLLQIDAGEPCLLIRRRTWSGRQPVTAARLIHPGSRHRLEGRFTK”, for which the protein production entry was “not failed”.

“MPTTKQLKDTELPLNFFEHSSLETIELFIQHLTEAMILVNANGFIRSCNQRSAELLDCPQVSLKGQDWRNFLTEHHQARYDNLLSHDVQLGTNCGQPVQHPAQETTLICASGKAKDVELSISYIPGHEPMFVMVMHDLTHHKAENQKLRKLAATDSLTQLANRRYFDEMLQQHWEECTAKLRPISVVIIDVDYFKVFNDQFGHIQGDECLRKIAKVIAGIVPTEIGLAARYGGEEFALILPNHNAKMALTIAQKIQQGINNIRFTDQGLRDYVSVSASQGIACEVNGQFRTSLAMVCAADTALYRAKADGRDRINTSL”: the protein production result is given as “failed”. In the case of “MPTTTTDPNQKQAELSPDELQRYSRHLTLPEFGREGQEALKNASVLLVGAGGLGSPAATYLAAAGVGRIGLVDFDSVEASNLQRQILYGTSDVGRPKLDAASERLEDLNPHVDVETHEVRLTSDNALDIIDQYDVVADGTDNFPTRYLVNDACVMTGTPNVYASIFRFEGQVSVFATEDGPCYRCLYEEPPPPGLVPSCAEGGVLGILPGFIGTLQATEVIKVLTGVGEPLVGRLLMSDALNMDFRTVNVPTNPECPVCGDDPTVTELIDYEAFCGLPQSDESSPNGTADSDVSDTDDAVPETSVHDLKQRRDAGDAPFVLDVREPYEAEIASLDADQLIPVDDLEARLDELDAGPEEEIVVHCRSGARSAKATAFLREQGYDASNLEGGVLAWSEEIDDSVPQY”, the protein production entry is given as “failed”. As to “MPTVKKLTKQVVDGLPTPATGQAFHWCSVTPGFAVRVTASGAKSYIVQGRVNSKTCRYTIGPCELLGTDEARKRALARLLEMHDGMNPQVERKRRQAQGVTLREVMEDYVENKRTKHGTLRDSSQADIKRCVTQHLADWADKPVASITREACVKRFRELSATAPTTANQVFRNLRALCNWARETNVAPDGSYPILPINPVVQAFKSVTWNKEVTREEFVPLAKVGAVWNMLAERSNAQIYTTADVTAAHLVMFLILTGARIGEGSALHWKDVRLDDEVPSFTFTQTKNHNEVTIPLSTQLHALLAARYSARRPDEEYVFPSRTGTREPHMQDARGTMQRVSKIAGLHLHNHDLRRTFLAIAIECGVEMWKAEILTNHLPQTVTLKHYTQTRDLRYLQADTQRVADWITKQAQVASGQNVVALRA”, the protein production entry is on record as “failed”. The entry for “MPTVLRWTRTMCKRPTCRVRQAWLVLPITGRWPSGGVSMKHACMLDSALPKPSQHSLRRQLNAIKREQFPWMSEVTKNAPQMAIIQLGRAFQNFFAGRAKYPKFRKKGMHDRFTLTNDQFDLEASRIRIPRLGWVRMRETLRFAGKIMLATVSRVAGRWFVSITVDVPDPSHLPQAENQGTVGVDLGVLVLATLSTGETVCGPRPHRALLGRVCRLSRSVLRKVKGSANRHKAKATLANLHARIAAIRLDALHTLTSDLTRRFHTIGIENLNVKGMLRNRHLARSIADIGFFEFRRQLEYKAMMRGGQVVVANRFFASSKRCLTCGHTLNELPLSVRQWACPACGARHDRDVNAAVNLKNMAVSSTVSACGEEGAGPRRKTAVGEAGSQLLEHHHHHH” is “failed”; for “MPTYPPSLLQSLLQYIPERELAWDCGAGSGQLTHMLASYFDQVVGTDISQTQLSHAEYYDNISYQLQPAENTTFPDHCFDLITVAQAIHWFDFEAFYAEVRRTIKPSGILAVVGYGLIHVDDLEINAKVQHLYHQTLNGFWDAERHYVDELYQTIPFPFDEIEMPAFQIEAQWTLQQLLQYLNTWSAVQHYILEKNLDPVQQLLSKGLEHHHHHH” it is “failed”; for “MPVEITVKELLEAGVHFGHERKRWNPKFARYIYAERNGIHIIDLQKTMEELERTFRFIEDLAMRGGTILFVGTKKQAQDIVRMEAERAGMPYVNQRWLGGMLTNFKTISQRVHRLEELEALFASPEIEERPKKEQVRLKHELERLQKYLSGFRLLKRLPDAIFVVDPTKEAIAVREARKLFIPVIALADTDSDPDLVDYIIPGNDDAIRSIQLILSRAVDLIIQARGGVVEPSPSYALVQEAEATETPEGESEVEA” it is “not failed”.

As to “MPVHSRGDKKETNHHDEMEVDYAENEGSSSEDEDTESSSVSEDGDSSEMDDEDCERRRMECLDEMSNLEKQFTDLKDQLYKERLSQVDAKLQEVIAGKAPEYLEPLATLQENMQIRTKVAGIYRELCLESVKNKYECEIQASRQHCESEKLLLYDTVQSELEEKIRRLEEDRHSIDITSELWNDELQSRKKRKDPFSPDKKKPVVVSGPYIVYMLQDLDILEDWTTIRKAMATLGPHRVKTEPPVKLEKHLHSARSEEGRLYYDGEWYIRGQTICIDKKDECPTSAVITTINHDEVWFKRPDGSKSKLYISQLQKGKYSIKHS”, the protein production result is reported as “not failed”. The entry for “MPVRTSQASQGNRGKGVGLGLALASAVAFGGSGVAAKPLIEAGLDPLHVVWLRVSGAALVMLPLAVRHRALLRRRPALLIGFGLLAVAGVQACYFAAISRIPVGVALLVEYLAPALVLGWVRFVQRRPVTRAAALGVVLAVGGLACVVEVWSGLGFDALGLLLALAAACCQVGYFVLSDQGSETGEDAPDPLGVIAFGLLIGALVLTVVARPWTMDWSVLGGRADMNGDSVPAALLLGWIVLIATVVAYVTGVLSVRRLSPQVAGVVACLEAVIATVLAWVLLGEHLSAPQIIGGAVVLVGAFIAQSSAPAKPSDGPVTGGGGAERQLSARGTAA” is “failed”; for “MPVSLYSGKVALRLLLLQLVTFALLSAVFSLNSVNAAASALGGGLAAWLPNVLFVLFALRHQSHKPADGRVAWSFAIGEALKVFITIALLVVALGVFKAAFFPLGLTYLSVLVMQIVAPIVINRYRN” it is “failed”. For the sequence “MPWLQVRLAITPEQAETYEDALLEVGAVSVTFMDAEDQPIFEPDLGTTPLWSRTHLLALFEADTDETALLAHLALLTGGDLPEHHVEEIADQDWERSWMDNFQPMRFGRRLWIVPSWHAAPEPDAVNLLLDPGLAFGTGTHPTTALCLEWLDGQELAGRQVLDFGCGSGILAIAALLLGAERAVGTDIDPQALEASRDNASRNGIEPARFPVYLPADLPQRQADVLVANILAGPLVSLAPQLTGLVRPGGLLALSGILAEQAEEVRAAYSAHFDLDPTAEREGWIRISGRRRAD”, the protein production entry was “failed”. The entry for “MQAFRAPSLATIDDVCGTRADGYDGAPLRSIPDFAVIVPMHNEEASVETLVAEIVTACQPVGQFEIVVVDDASSDRTVNAVLSLGDRYPMLRLVRHDRQGGQSAAIHSGVQAARAPVICMLDGDGQNPPDNLPALLAPLLSATATSRLGLVAGQRVGRRDTLGKRLSSRFANGLRARILKDGTRDTGCGLKAFRRDAYLALPYFDHHHRYFPALFNRDGWQVAHVDVTHRARLHGNSHYTNIGRALVGIHDLIGVVWLLRRRKRSSWAETFKTETSPLEHHHHHH” is “not failed”. Take “MQAGPSAAVENKIITLVESILAQNGIAGGIERDTTFADAGLTSMEMVNLMLAVEAEFDMTLPQSDITPENFTSAATVAQLVSRRQHAQAALEHHHHHH”: the protein production result is reported as “not failed”.

For the sequence “MQAIAIDQFSEPEETQVEQVENPDRNEAGYEVCNQSGENLSVAIAYFDTSIDSYRSEGWWNLDQSKCQFFPNLLDSVDEVYVFAESDQTLWSGDFPFCMQEDAFEYPDANRDRCPSPAYSKGFLKVEVGDAKTWTTNLTPSQLEHHHHHH”, the protein production result is “failed”. For “MQDASAWMLALAGLCVGVTAGFFVRLARLCSFGAVEDALMGGDTRRLRIFGLALGIALLGTQALVIAGQLDPGQSNYTAPALPLISIAIGSVLFGIGMAFVGTCGFGSLVRLGGGDLRSFVVILVLGGAAYATLRGMFSGFRITVLERFAITMPEGVNTDLAALTQHLSGIDLRAVIAALGGGLLCLIALGDKRLRRTPRLLAAGVALGLLTVVGWLATTKLADPFAGPVHPQSLTFVSTVGKAVYAGLLNVANFADFGVGTVFGVIAGAFIAAWHTDELRWEAFDDDHEMRRHVAGAALMGFGGILTGGCTIGQGITAGSVMALSWPIAIVGMMFGARIGIAVLVDGSPRELIRRRFDAWRELLQRRRAPALTAANRPNHRPAAPSDAPRPTAPHSLAE”, the protein production entry was “failed”.

Regarding “MQDDVLAKELADKTSKADIDTDAQTVTRLIADEIDTAKQAAESDITQRSRFIETLRQYAGGGSAMAALITRLGYSKADILHLAELWAQERDPELNFIVGSLYDSGFVEVDDKEARSLQWFRKAAELGQADAQNILGYFYLNGKRGIKRDLQKGGQWYELAAAQGNVDALINLGEIYYSGTQVPLDYARAFEFFERAAKMGKSRALNYLAWMYTNGQFVDTDCRKAAELFAQGRTSFADDPHFQVTCEKDRQARAEAVAMREKNLPKLTFNRDRVFGASQGSGYACELEFVVKTDRVSSIENLRVSLALKNKAGAMSQQVIAFEPFGLNTQNRNLQGYKSDTLRESTLQPIYQPEFCDVDSYSVTAVTGIVNGKEMDILKAGIFL”, the protein production entry was “failed”.

For “MQDEYYMARALKLAQRGRFTTHPNPNVGCVIVKDGEIVGEGYHQRAGEPHAEVHALRMAGEKAKGATAYVTLEPCSHHGRTPPCCDALIAAGVARVVASMQDPNPQVAGRGLYRLQQAGIDVSHGLMMSEAEQLNKGFLKRMRTGFPYIQLKLGASLDGRTAMASGESQWITSPQARRDVQLLRAQSHAILTSSATVLADDPALTVRWSELDEQTQALYPQQNLRQPIRIVIDSQNRVTPVHRIVQQPGETWFARTQEDSREWPETVRTLLIPEHKGHLDLVVLMMQLGKQQINSIWVEAGPTLAGALLQAGLVDELIVYIAPKLLGSDARGLCTLPGLEKLADAPQFKFKEIRHVGPDVCLHLVGA”, the protein production result is recorded as “not failed”. In the case of “MQDFDFSFNPKACEGCGAKCCVGESGYIFLNIQEMQQISAFLKLELEEFSQKYVKKVGYKFSLLEKDAKELGLACVFLDLETKKCQIYSVRPKQCQTFPFWEGVKTFSKEQKEAFCQSCPGITQKTKETKVR”, the protein production result is recorded as “failed”. With “MQDFGDNSGRAPAAGRSWRNTPSSFGVVAIAFHWTIAVLFVAQLALGYLMSRDSIDPVLQFNFFQYHKSIGFLVLALAVPRCLWSVFSRKPRAVDGEGPVSRFAARVAHSALLFLTLAVPLAGWAVASTSPLQIPSYVFDLVVVPGLPMTISDQAEAFWSDVHATLAYLAAVIVLLHVIAALWHHFIRRDPTLRRMLPLPDTTDNSRREISSGQ”, the protein production entry is on record as “failed”.
